# According to article PMC4357697, “Sequence-specific cleavage of dsRNA by Mini-III RNase”:
# T1: BsMiniIII Δ5 (Bacillus subtilis ATCC 23857, UniProt O31418 1-143, del91-95)
# T1 sequence: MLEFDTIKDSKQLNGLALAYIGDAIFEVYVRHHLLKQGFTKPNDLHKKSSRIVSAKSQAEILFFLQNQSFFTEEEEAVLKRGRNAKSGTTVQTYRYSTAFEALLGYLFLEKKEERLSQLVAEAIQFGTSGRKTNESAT
# T2: BsMiniIII Δ10 (Bacillus subtilis ATCC 23857, UniProt O31418 1-143, del86-95)
# T2 sequence: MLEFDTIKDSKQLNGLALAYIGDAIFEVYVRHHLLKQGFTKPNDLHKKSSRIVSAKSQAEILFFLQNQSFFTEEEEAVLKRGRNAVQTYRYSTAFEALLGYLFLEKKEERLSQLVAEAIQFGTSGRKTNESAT
# B1: 30 bp dsRNA (30f/30r) (dsRNA)
# RNA 1: CGAUACCGUCGACCUCGAGGGGGGGCCCGG
# RNA 2: CCGGGCCCCCCCUCGAGGUCGACGGUAUCG
# Tests used:
# [1] = target: T1, BsMiniIII Δ5; assay: filter binding; 1 mM Ca2+; affinity not affected vs wild type; Filter binding: 10 mM Tris-HCl pH 7.5, 5 mM NaCl, 1 mM CaCl2, room temperature, 1 h; 0.01 µM labeled 30 bp dsRNA, 0.1-4 µM enzyme; details: protein: recombinant; tags: C-terminal His6; chain copies: 2; label: 32P end label (33P in Methods for the substrate); blunt
# [2] = target: T2, BsMiniIII Δ10; assay: as above; details: protein: recombinant; tags: C-terminal His6; chain copies: 2; label: 32P end label (33P in Methods for the substrate); blunt
binder,measurement,setting,value
B1,binding result,[1],binds
same,binding result,[2],binds
